The source of these data is patent US8703708.

Common to all, as to assay: cell-based or functional assay
The target of experiment [1] is Lrp5 + Fzd4 co-expressed on STF (superTOPFLASH) reporter cells (UniProt Q91VN0).
The target of experiment [2] is Lrp5 + Fzd7 co-expressed on STF (superTOPFLASH) reporter cells (UniProt Q91VN0).
The target in experiment [3] is Lrp6 + Fzd4 co-expressed on STF (superTOPFLASH) reporter cells (UniProt O88572).
For experiment [4], the target named is Lrp6 + Fzd7 co-expressed on STF (superTOPFLASH) reporter cells (UniProt O88572).
Chain of Lrp6 + Fzd7 co-expressed on STF (superTOPFLASH) reporter cells (O88572 20-1613 limits assumed, chain 1 of 2, other chains not shown): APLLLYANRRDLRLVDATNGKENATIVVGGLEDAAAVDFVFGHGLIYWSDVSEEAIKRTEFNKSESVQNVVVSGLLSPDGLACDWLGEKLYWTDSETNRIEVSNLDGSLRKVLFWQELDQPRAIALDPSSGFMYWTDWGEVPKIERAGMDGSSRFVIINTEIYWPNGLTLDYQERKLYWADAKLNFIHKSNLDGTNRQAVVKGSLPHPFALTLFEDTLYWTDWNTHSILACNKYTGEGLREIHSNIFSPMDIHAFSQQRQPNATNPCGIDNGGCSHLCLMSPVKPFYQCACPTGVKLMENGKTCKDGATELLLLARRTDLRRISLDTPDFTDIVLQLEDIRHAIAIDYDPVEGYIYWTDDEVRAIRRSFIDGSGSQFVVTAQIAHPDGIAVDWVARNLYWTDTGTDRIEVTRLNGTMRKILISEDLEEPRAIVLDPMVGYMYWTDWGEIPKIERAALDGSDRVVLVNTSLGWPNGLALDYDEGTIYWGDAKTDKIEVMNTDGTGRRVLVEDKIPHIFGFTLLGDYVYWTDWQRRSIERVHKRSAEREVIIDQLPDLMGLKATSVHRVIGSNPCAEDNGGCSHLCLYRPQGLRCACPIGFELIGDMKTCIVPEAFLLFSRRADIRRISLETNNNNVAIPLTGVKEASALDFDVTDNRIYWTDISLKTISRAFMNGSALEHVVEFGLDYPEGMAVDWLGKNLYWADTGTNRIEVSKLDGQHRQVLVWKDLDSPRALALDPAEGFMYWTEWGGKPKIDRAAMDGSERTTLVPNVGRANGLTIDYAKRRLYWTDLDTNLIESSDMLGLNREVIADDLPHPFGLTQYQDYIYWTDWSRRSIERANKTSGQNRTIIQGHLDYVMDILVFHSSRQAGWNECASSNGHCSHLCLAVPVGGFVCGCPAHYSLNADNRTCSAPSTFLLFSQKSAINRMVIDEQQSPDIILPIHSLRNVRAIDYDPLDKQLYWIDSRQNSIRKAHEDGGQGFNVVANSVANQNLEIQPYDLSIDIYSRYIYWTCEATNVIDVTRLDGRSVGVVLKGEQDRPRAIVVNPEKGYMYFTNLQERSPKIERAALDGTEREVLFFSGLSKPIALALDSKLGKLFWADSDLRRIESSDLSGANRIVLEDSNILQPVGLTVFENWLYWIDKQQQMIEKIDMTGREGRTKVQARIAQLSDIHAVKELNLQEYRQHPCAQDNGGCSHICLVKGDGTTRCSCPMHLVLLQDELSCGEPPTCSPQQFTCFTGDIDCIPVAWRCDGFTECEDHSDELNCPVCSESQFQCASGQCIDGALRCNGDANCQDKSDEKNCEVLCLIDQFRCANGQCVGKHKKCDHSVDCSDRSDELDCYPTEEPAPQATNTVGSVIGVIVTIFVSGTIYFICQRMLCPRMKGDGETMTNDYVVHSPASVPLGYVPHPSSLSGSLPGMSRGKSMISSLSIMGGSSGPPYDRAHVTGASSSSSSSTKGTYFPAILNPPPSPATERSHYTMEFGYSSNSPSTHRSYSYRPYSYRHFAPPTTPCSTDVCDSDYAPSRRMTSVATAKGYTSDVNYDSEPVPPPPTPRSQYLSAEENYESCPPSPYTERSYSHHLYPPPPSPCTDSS

Chain of Lrp6 + Fzd4 co-expressed on STF (superTOPFLASH) reporter cells (O88572 20-1613 limits assumed, chain 1 of 2): as the sequence (O88572 20-1613 limits assumed, chain 1 of 2, other chains not shown) above
Chain of Lrp6 + Fzd4 co-expressed on STF (superTOPFLASH) reporter cells (Q61088 37-537 limits assumed, chain 2 of 2, further chain): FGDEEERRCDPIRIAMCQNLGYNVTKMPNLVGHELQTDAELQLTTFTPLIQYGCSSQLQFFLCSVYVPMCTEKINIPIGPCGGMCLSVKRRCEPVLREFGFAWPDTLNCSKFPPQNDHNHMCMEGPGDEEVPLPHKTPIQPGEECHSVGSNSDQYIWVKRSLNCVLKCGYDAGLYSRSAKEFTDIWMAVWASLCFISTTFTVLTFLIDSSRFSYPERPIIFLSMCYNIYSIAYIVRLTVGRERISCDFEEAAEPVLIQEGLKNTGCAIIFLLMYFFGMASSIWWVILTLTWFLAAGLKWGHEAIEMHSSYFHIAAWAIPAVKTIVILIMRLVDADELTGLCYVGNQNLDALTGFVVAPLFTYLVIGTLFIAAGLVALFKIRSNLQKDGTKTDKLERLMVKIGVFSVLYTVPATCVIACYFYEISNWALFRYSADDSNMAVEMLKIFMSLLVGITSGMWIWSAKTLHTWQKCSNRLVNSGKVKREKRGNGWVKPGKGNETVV
Chain of Lrp5 + Fzd4 co-expressed on STF (superTOPFLASH) reporter cells (Q91VN0 31-1614 limits assumed, chain 1 of 2): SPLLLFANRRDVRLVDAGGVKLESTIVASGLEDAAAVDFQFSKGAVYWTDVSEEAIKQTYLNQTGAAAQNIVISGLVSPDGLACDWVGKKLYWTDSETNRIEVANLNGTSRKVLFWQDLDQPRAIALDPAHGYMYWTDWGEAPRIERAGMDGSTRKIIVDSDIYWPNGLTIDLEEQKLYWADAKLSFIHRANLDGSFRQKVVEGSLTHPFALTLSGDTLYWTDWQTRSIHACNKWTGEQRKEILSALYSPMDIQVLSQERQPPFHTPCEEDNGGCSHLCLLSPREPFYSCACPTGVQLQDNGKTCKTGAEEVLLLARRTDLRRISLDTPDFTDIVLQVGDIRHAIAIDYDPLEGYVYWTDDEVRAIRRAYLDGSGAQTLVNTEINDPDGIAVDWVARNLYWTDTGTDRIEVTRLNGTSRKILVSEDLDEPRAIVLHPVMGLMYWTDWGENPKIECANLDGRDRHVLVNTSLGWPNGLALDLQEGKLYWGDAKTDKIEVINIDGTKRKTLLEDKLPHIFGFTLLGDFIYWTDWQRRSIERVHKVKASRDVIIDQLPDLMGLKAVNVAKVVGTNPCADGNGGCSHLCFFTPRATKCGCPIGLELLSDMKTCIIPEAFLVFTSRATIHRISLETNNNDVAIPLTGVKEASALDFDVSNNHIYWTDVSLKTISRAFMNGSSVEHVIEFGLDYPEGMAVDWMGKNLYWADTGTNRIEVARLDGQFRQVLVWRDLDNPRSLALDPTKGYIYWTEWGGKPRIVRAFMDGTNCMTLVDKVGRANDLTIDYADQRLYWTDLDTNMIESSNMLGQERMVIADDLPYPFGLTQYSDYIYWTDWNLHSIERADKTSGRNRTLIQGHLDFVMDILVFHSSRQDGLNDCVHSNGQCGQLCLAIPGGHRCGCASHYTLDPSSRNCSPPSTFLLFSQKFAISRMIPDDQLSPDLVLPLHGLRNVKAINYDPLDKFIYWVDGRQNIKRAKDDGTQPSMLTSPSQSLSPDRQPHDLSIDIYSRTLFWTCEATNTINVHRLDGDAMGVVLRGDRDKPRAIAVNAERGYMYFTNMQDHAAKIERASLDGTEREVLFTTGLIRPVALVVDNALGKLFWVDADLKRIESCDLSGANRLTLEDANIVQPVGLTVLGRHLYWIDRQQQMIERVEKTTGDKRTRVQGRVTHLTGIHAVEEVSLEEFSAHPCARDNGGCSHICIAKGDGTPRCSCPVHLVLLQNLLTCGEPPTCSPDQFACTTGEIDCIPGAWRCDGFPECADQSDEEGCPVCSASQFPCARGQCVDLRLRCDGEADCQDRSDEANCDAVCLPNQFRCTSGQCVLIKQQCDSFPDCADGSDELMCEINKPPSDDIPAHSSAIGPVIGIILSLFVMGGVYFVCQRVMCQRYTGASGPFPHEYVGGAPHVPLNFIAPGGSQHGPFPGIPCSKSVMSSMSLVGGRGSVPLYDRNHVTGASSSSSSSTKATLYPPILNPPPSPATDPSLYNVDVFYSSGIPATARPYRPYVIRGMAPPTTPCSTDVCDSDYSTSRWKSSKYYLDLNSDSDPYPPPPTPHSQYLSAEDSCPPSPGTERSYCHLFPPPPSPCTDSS
Chain of Lrp5 + Fzd4 co-expressed on STF (superTOPFLASH) reporter cells (Q61088 37-537 limits assumed, chain 2 of 2, further chain): as the sequence (Q61088 37-537 limits assumed, chain 2 of 2, further chain) above
Chain of Lrp5 + Fzd7 co-expressed on STF (superTOPFLASH) reporter cells (Q91VN0 31-1614 limits assumed, chain 1 of 2, other chains not shown): as the sequence (Q91VN0 31-1614 limits assumed, chain 1 of 2) above

Turning to “Wnt7b (ORF cloned from C57BL6 kidney cDNA, expressed by 293 cells or bone marrow macrophages) (from UniProt P28047 25-349) (ligand)”, the Firefly Luciferase, absolute light units, STF reporter cells co-cultured with 293-Wnt7b (293-control: 6430) (absolute light units) in experiment [1] amounted to 26900. For the same substance, the Firefly Luciferase, absolute light units, STF reporter cells co-cultured with 293-Wnt7b (293-control: 16172) (absolute light units) in experiment [2] was determined as 51600. Moreover, in experiment [3], the Firefly Luciferase, absolute light units, STF reporter cells co-cultured with 293-Wnt7b (293-control: 573) (absolute light units) amounted to 10100. Besides, the Firefly Luciferase, absolute light units, STF reporter cells co-cultured with 293-Wnt7b (293-control: 464) (absolute light units) in experiment [4] worked out at 11500.
